Laboratory results as given in FireProtDB (doi:10.1021/bi000849s).

Conditions: Homo sapiens, Thermal, DSC, reversible: yes, whole UniProt chain shown

B1: Lysozyme C wild type, P61626 (protein)
chain: MKALIVLGLVLLSVTVQGKVFERCELARTLKRLGMDGYRGISLANWMCLAKWESGYNTRATNYNAGDRSTDYGIFQINSRYWCNDGKTPGAVNACHLSCSALLQDNIADAVACAKRVVRDPQGIRAWVAWRNRCQNRDVRQYVQGCGV
Tm (pH 2.2, glycine hydrochloride 0.05 M): 57.5 °C | Tm (pH 2.3, glycine hydrochloride 0.05 M, KCl 0.2 M): 56.2 °C | Tm (pH 4, sodium acetate 0.02 M): 80.1 °C | Tm (pH 4.5, sodium acetate 0.02 M, KCl 0.2 M): 77.7 °C
